The values that follow come from article PMC7828216, “Identification and Functional Analysis of Apoptotic Protease Activating Factor-1 (Apaf-1) from Spodoptera litura” (Insects, 2021).

B1: Sl-Apaf-1-CARD (caspase recruitment domain of Spodoptera litura apoptotic protease activating factor-1, 1-88aa) (domain or fragment, UniProt A0A7T6ZKB7 1-88, looked up)
chain: MDKHKRLLLQKYQQDIIDDLDVAYVYDELFAKHVISAEEVDRMFSLTTRIDQTRFLLDSLIRNGTNGTYQVFVDSLQKDYGWLWEKLA
notes: caspase recruitment domain, residues 1-88; Cloned with Nde I and Xho I in pET-22b; also called Sl-Af88; Sl-Apaf-1-CARD domain protein fragment
B2: Sl-caspase5-CARD (caspase recruitment domain of Spodoptera litura caspase-5, 1-132aa) (domain or fragment, UniProt R4I520 1-132, looked up)
chain: MQREHRDAIQSNFSSLVERTDLDSVVTALYEKGVFSEQMIEPYRNNSELERDRKRRLYMDVTRRGPHAFAHLVDTLGELGYWDLARDLDPDSPFSFSSQQRSHPIPQPKPADNDNFRSLSTSNRPRAEPNRI
notes: Sl-caspase-5 of Spodoptera litura (a homologue of mammalian caspase-9; Dronc), GenBank JQ768051; caspase recruitment domain, residues 1-132; Cloned with Nde I and Xho I in pET-22b; also called caspase-5-CARD domain

Experiment [1] addresses B2. Put plainly: ITC; Sl-Apaf-1-CARD at 50 µM, Sl-caspase-5-CARD at 450 µM; 10 mM HEPES, 100 mM NaCl, 2 mM DTT, pH 7.4; 20 °C; 20 injections; VP-ITC; which protein was in the cell is not said. To be noted: both partners purified.
The target in experiment [2] is B1. Described as above. To be noted: both partners purified.

The stoichiometry N is the number of molecules, sites or subunits per partner or assembly.

Turning to B1, the Ka in experiment [1] came out at 1.28e+06 M⁻¹.
As for B2, in experiment [2], the dH is -15.5 kcal/mol and the “stoichiometry N” value came out at 1.
